Test results published in publication PMC11441495 (Proceedings of the National Academy of Sciences of the …, 2024).
Blank lines part the entries; values can stand above or below the binder they belong to.

B2: human β-catenin (natural protein, UniProt P35222 1-781, looked up)
chain: MATQADLMELDMAMEPDRKAAVSHWQQQSYLDSGIHSGATTTAPSLSGKGNPEEEDVDTSQVLYEWEQGFSQSFTQEQVADIDGQYAMTRAQRVRAAMFPETLDEGMQIPSTQFDAAHPTNVQRLAEPSQMLKHAVVNLINYQDDAELATRAIPELTKLLNDEDQVVVNKAAVMVHQLSKKEASRHAIMRSPQMVSAIVRTMQNTNDVETARCTAGTLHNLSHHREGLLAIFKSGGIPALVKMLGSPVDSVLFYAITTLHNLLLHQEGAKMAVRLAGGLQKMVALLNKTNVKFLAITTDCLQILAYGNQESKLIILASGGPQALVNIMRTYTYEKLLWTTSRVLKVLSVCSSNKPAIVEAGGMQALGLHLTDPSQRLVQNCLWTLRNLSDAATKQEGMEGLLGTLVQLLGSDDINVVTCAAGILSNLTCNNYKNKMMVCQVGGIEALVRTVLRAGDREDITEPAICALRHLTSRHQEAEMAQNAVRLHYGLPVVVKLLHPPSHWPLIKATVGLIRNLALCPANHAPLREQGAIPRLVQLLVRAHQDTQRRTSMGGTQQQFVEGVRMEEIVEGCTGALHILARDVHNRIVIRGLNTIPLFVQLLYSPIENIQRVAAGVLCELAQDKEAAEAIEAEGATAPLTELLHSRNEGVATYAAAVLFRMSEDKPQDYKKRLSVELTSSLFRTEPMAWNETADLGLDIGAQGEPLGYRQDDPSYRSFHSGGYGQDALGMDPMMEHEMGGHHPGADYPVDGLPDLGHAQDLMDGLPPGDSNQLAWFDTDL
B3: full-length human αE-catenin (natural protein, UniProt P35221 1-906, looked up)
chain: MTAVHAGNINFKWDPKSLEIRTLAVERLLEPLVTQVTTLVNTNSKGPSNKKRGRSKKAHVLAASVEQATENFLEKGDKIAKESQFLKEELVAAVEDVRKQGDLMKAAAGEFADDPCSSVKRGNMVRAARALLSAVTRLLILADMADVYKLLVQLKVVEDGILKLRNAGNEQDLGIQYKALKPEVDKLNIMAAKRQQELKDVGHRDQMAAARGILQKNVPILYTASQACLQHPDVAAYKANRDLIYKQLQQAVTGISNAAQATASDDASQHQGGGGGELAYALNNFDKQIIVDPLSFSEERFRPSLEERLESIISGAALMADSSCTRDDRRERIVAECNAVRQALQDLLSEYMGNAGRKERSDALNSAIDKMTKKTRDLRRQLRKAVMDHVSDSFLETNVPLLVLIEAAKNGNEKEVKEYAQVFREHANKLIEVANLACSISNNEEGVKLVRMSASQLEALCPQVINAALALAAKPQSKLAQENMDLFKEQWEKQVRVLTDAVDDITSIDDFLAVSENHILEDVNKCVIALQEKDVDGLDRTAGAIRGRAARVIHVVTSEMDNYEPGVYTEKVLEATKLLSNTVMPRFTEQVEAAVEALSSDPAQPMDENEFIDASRLVYDGIRDIRKAVLMIRTPEELDDSDFETEDFDVRSRTSVQTEDDQLIAGQSARAIMAQLPQEQKAKIAEQVASFQEEKSKLDAEVSKWDDSGNDIIVLAKQMCMIMMEMTDFTRGKGPLKNTSDVISAAKKIAEAGSRMDKLGRTIADHCPDSACKQDLLAYLQRIALYCHQLNICSKVKAEVQNLGGELVVSGVDSAMSLIQAAKNLMNAVVQTVKASYVASTKYQKSQGMASLNLPAVSWKMKAPEKKPLVKREKQDETQTKIKRASQKKHVNPVQALSEFKAMDSI
B4: full-length human vinculin autoinhibition-disruption mutant VK3E (natural protein, UniProt P18206-2 1-1066, looked up)
chain: MPVFHTRTIESILEPVAQQISHLVIMHEEGEVDGKAIPDLTAPVAAVQAAVSNLVRVGKETVQTTEDQILKRDMPPAFIKVENACTKLVQAAQMLQSDPYSVPARDYLIDGSRGILSGTSDLLLTFDEAEVRKIIRVCKGILEYLTVAEVVETMEDLVTYTKNLGPGMTKMAKMIDERQQELTHQEHRVMLVNSMNTVKELLPVLISAMKIFVTTKNSKNQGIEEALKNRNFTVEKMSAEINEIIRVLQLTSWDEDAWASKDTEAMKRALASIDSKLNQAKGWLRDPSASPGDAGEQAIRQILDEAGKVGELCAGKERREILGTCKMLGQMTDQVADLRARGQGSSPVAMQKAQQVSQGLDVLTAKVENAARKLEAMTNSKQSIAKKIDAAQNWLADPNGGPEGEEQIRGALAEARKIAELCDDPKERDDILRSLGEISALTSKLADLRRQGKGDSPEARALAKQVATALQNLQTKTNRAVANSRPAKAAVHLEGKIEQAQRWIDNPTVDDRGVGQAAIRGLVAEGHRLANVMMGPYRQDLLAKCDRVDQLTAQLADLAARGEGESPQARALASQLQDSLKDLKARMQEAMTQEVSDVFSDTTTPIKLLAVAATAPPDAPNREEVFDERAANFENHSGKLGATAEKAAAVGTANKSTVEGIQASVKTARELTPQVVSAARILLRNPGNQAAYEHFETMKNQWIDNVEKMTGLVDEAIDTKSLLDASEEAIKKDLDKCKVAMANIQPQMLVAGATSIARRANRILLVAKREVENSEDPKFREAVKAASDELSKTISPMVMDAKAVAGNISDPGLQKSFLDSGYRILGAVAKVREAFQPQEPDFPPPPPDLEQLRLTDELAPPKPPLPEGEVPPPRPPPPEEKDEEFPEQKAGEVINQPMMMAARQLHDEARKWSSKGNDIIAAAKRMALLMAEMSRLVRGGSGTEEALIQCAKDIAKASDEVTRLAKEVAKQCTDKRIRTNLLQVCERIPTISTQLEILSTVKATMLGRTNISDEESEQATEMLVHNAQNLMQSVKETVREAEAASIKIRTDAGFTLRWVRKTPWYQ

How the values were obtained:
Test in all cases: reconstitution of the complex from purified proteins
[1] = target: B2
[2] = target: B3
[3] = target: B4
[4] = target: α-catenin–β-catenin–E-cadherin cytoplasmic tail complex (ABE complex) (human, UniProt P35221 1-906; P35222 1-781; P12830 731-882)
α-catenin–β-catenin–E-cadherin cytoplasmic tail complex (ABE complex), sequence (P12830 731-882, one chain of several): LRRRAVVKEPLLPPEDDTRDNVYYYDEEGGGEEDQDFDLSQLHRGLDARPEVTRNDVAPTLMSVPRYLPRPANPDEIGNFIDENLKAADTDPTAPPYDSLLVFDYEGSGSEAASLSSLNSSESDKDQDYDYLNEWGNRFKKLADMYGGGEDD

binding result [1]: binds
B1: cytoplasmic domain of human E-cadherin (EcadCT, residues 731 to 882) (domain or fragment)
chain: not shown

Binder: B2
binding result [2]: binds

Binder: B3
binding result [3]: binds

Binder: B4
binding result [4]: binds
